For the assay, the target named is acetylcholine receptor. In words: SPR, AchR immobilised on CM5 chip, peptide 10 uM. Background: SPR reads the build-up and loss of mass on a sensor chip optically.

As to KMAPKR [6mer-2-636], the Binding affinity (RU) came out at 21 RU.

In turn, KHHKKR [6mer-2-618] yielded a Binding affinity (RU) of 12 RU.

The molecule RIKMRR [6mer-2-611] displayed a Binding affinity (RU) of 22 RU.

Molecule RKPTAK [6mer-1-1064] came in with a Binding affinity (RU) of 41 RU.

KYAVKR [6mer-2-633] displayed a Binding affinity (RU) of 17 RU.

Consider REEFRR [6mer-2-641], for which the Binding affinity (RU) is 12 RU.

For the molecule RRICMR [6mer-1-1062], the Binding affinity (RU) turned out to be 27 RU.

KAANRR [6mer-2-613] came in with a Binding affinity (RU) of 18 RU.

Turning to RKNPKR [6mer-2-610], the Binding affinity (RU) amounted to 32 RU.

Take KTENKK [6mer-2-642]: the Binding affinity (RU) came to 16 RU.

KHAHRR [6mer-2-623] displayed a Binding affinity (RU) of 13 RU.

Turning to RPPVRK [6mer-2-637], the Binding affinity (RU) is 32 RU.

On to RIKVKK [6mer-2-645], for which the Binding affinity (RU) was determined as 15 RU.

On to KAWIRR [6mer-2-614], for which the Binding affinity (RU) came to 19 RU.

KYCMKR [6mer-2-631] yielded a Binding affinity (RU) of 16 RU.

Turning to RYTNKR [6mer-2-622], the Binding affinity (RU) turned out to be 13 RU.

With KNCGKK [6mer-2-605], the Binding affinity (RU) turned out to be 17 RU.

With KDNGRK [6mer-2-615], the Binding affinity (RU) amounted to 27 RU.

Molecule KNSEKK [6mer-2-626] had a Binding affinity (RU) of 33 RU.

As to RCWAKR [6mer-2-638], the Binding affinity (RU) turned out to be 30 RU.

For the molecule RHEPKR [6mer-2-621], the Binding affinity (RU) is 32 RU.

In turn, RYAFRR [6mer-2-630] showed a Binding affinity (RU) of 27 RU.

For the molecule KKWVKR [6mer-2-607], the Binding affinity (RU) came out at 31 RU.

For RYPDRK [6mer-2-648], the Binding affinity (RU) was 23 RU.

The molecule KKTARR [6mer-2-627] had a Binding affinity (RU) of 33 RU.

In turn, RAAPRR [6mer-2-646] came in with a Binding affinity (RU) of 32 RU.

Take RKPFRR [6mer-2-606]: the Binding affinity (RU) amounted to 15 RU.

On to RHTGRR [6mer-2-620], for which the Binding affinity (RU) came to 33 RU.

KPPIRK [6mer-2-624] gave a Binding affinity (RU) of 33 RU.

Regarding RPPDRR [6mer-2-619], the Binding affinity (RU) was 26 RU.

For KKIDHK [6mer-1-1063], the Binding affinity (RU) came to 25 RU.

For KYDIKR [6mer-2-632], the Binding affinity (RU) stood at 12 RU.

With REPHRK [6mer-2-616], the Binding affinity (RU) worked out at 26 RU.

In turn, RDSDRR [6mer-2-609] came in with a Binding affinity (RU) of 24 RU.

With REPNRR [6mer-2-644], the Binding affinity (RU) turned out to be 12 RU.

Consider KNSHKK [6mer-2-601], for which the Binding affinity (RU) came to 25 RU.

In the case of RFPDKK [6mer-2-625], the Binding affinity (RU) stood at 33 RU.

For the molecule RKSFKR [6mer-2-628], the Binding affinity (RU) worked out at 30 RU.

Turning to KEPIRK [6mer-2-604], the Binding affinity (RU) was 16 RU.

In the case of KFKKKR [6mer-2-640], the Binding affinity (RU) was determined as 21 RU.

With RNTPKR [6mer-2-602], the Binding affinity (RU) amounted to 24 RU.

Turning to RCNGRR [6mer-2-617], the Binding affinity (RU) was 32 RU.

For the molecule RFCWKK [6mer-2-629], the Binding affinity (RU) was 32 RU.

Regarding KANPKK [6mer-2-643], the Binding affinity (RU) turned out to be 12 RU.

Take RYEHRK [6mer-2-634]: the Binding affinity (RU) worked out at 33 RU.

Turning to KFHARR [6mer-2-603], the Binding affinity (RU) was determined as 32 RU.

As to KTEPKR [6mer-2-647], the Binding affinity (RU) is 19 RU.

Take RCNHKK [6mer-2-608]: the Binding affinity (RU) is 32 RU.

On to KECVRR [6mer-2-635], for which the Binding affinity (RU) turned out to be 11 RU.

Regarding KHTVKK [6mer-2-639], the Binding affinity (RU) turned out to be 23 RU.

Take RDCVRK [6mer-2-612]: the Binding affinity (RU) is 17 RU.

Values taken from patent US20250011363A1, “OPTIMIZED SHORTENED PEPTIDE THAT BINDS TO ACETYLCHOLINE RECEPTOR, AND USE THEREOF” (SKINMED CO., LTD., priority 2021, published 2025).
